{
  "source": "patent US20220249369",
  "proteins": {"B1": {"name": "Outer Membrane Protease T (protein)", "chain": "STETLSFTPDNINADISLGTLSGKTKERVYLAEEGGRKVSQLDWKFNNAAIIKGAINWDLMPQISIGAAGWTTLGSRGGNMVDQDWMDSSNPGTWTDESRHPDTQLNYANEFDLNIKGWLLNEPNYRLGLMAGYQESRYSFTARGGSYIYSSEEGFRDDIGSFPNGERAIGYKQRFKMPYIGLTGSYRYEDFELGGTFKYSGWVESSDNDEHYDPGKRITYRSKVKDQNYYSVAVNAGYYVTPNAKVYVEGAWNRVTNKKGNTSLYDHNNNTSDYSKNGAGIENYNFITTAGLKYTF"}},
  "biological_target": "T1, OmpTs, DABCYL-RRSRRV-K(5-FAM)",
  "T1 chain": "RRSRRVK",
  "data": [
    {"protein": "B1", "values": [
      {"measurement": "cleavage of quenched fluorescent substrate", "result": "a substrate (RRSRRVK (SEQ ID NO:9)) specific for the E. coli surface protease OmpT"}
    ]}
  ]
}
